The test system of this data set is MS2 coat protein. Description: apparent KD of MS2 coat protein; designed switch direction (-1 OFF switch, 1 ON switch): -1; higher = weaker reporter binding. In a few lines: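 An oligonucleotide input, 200 uM small-molecule ligand, or no input was present during titration of SNAP-549-labelled MS2 coat protein, which was doubled from 0.7 or 1.5 nM to 3 µM. Designed RNA switches had been transcribed on Illumina chips by stalled E. coli RNA polymerase. Apparent KD per design is the median over clusters of curves fitted to normalised cluster fluorescence.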

[1] abbreviates: input ligand: microRNA oligo, concentration not stated.
The mark [2] stands for this setting: Eterna round: R95, input ligand: microRNA oligo, concentration not stated.

Regarding “AUUGUUUGAUACCUCUAAUACAUGAGGAUCACCCAUGUUAUCGAGGAUAUGCAGUAGAGUGGAGAGCAGAAGGCGAAGUAAGUG [JR_ExcNG3_Sub028] (Eterna round: R96, puzzle: Exclusion NG 3)”, the “apparent KD of MS2 coat protein” value is, setting by setting: (input ligand: FMN 200 uM) 27 nM; under setting [1], 14.4 nM; (input ligand: none) 13.7 nM.
Take “AAUUUAUGAGGAUAUACAGUGUAAAACAUGAGGAUCACCCAUGUUCUUCAAUUAGUAUAUGUAGAAGGCAUAUGUA [JR_Ex5_Sub096] (Eterna round: R97, puzzle: Exclusion 5)”: the “apparent KD of MS2 coat protein” value by setting is: (input ligand: FMN 200 uM) 15 nM; (input ligand: none) 13.7 nM.
Take “AAGAAGAUAGGAUAUACGAGGAGAGGAGAGAAGAGGAGAGGACAUGAGGAUCACCCAUGUAGAAGGAUCAGGAA [JR_Exclu2_Sub062] (puzzle: Exclusion 2)”: the “apparent KD of MS2 coat protein” value (Eterna round: R95, input ligand: FMN 200 uM) turned out to be 28.9 nM; the “apparent KD of MS2 coat protein” value under setting [2] came out at 29.6 nM; the “apparent KD of MS2 coat protein” value (Eterna round: R95, input ligand: none) was 28.5 nM.
Regarding “CCUUAGUCACAGGAUAUGCUCAUCUAAUGAUGAGCAGAAGGGUGAACAUGAGGAUCACCCAUGUUUACCAGGGU [Omei Ex6 E4] (Eterna round: R97, puzzle: Exclusion 6)”, the “apparent KD of MS2 coat protein” value is, setting by setting: (input ligand: FMN 200 uM) 247 nM; (input ligand: none) 37.1 nM.
For “ACAUGUUGCGCAGGAUAUGGGACACAUGAGGAUCACCCAUGUGGCUACAUGUCAUACCAAGCGUCUCAGAAGGGUGUUAACAUG [Ex NG2 #36] (Eterna round: R96, puzzle: Exclusion NG 2)”, the “apparent KD of MS2 coat protein” value runs as follows: (input ligand: FMN 200 uM) 20.1 nM; under setting [1], 14 nM; (input ligand: none) 17.7 nM.
For “UUAAAUCAUGUAGGAUAUGCGUGGCGAAGCUAUGCAGAAGGACAUGAGGAUCACCCAUGUCUUUCCGUCUGCGUACAGAUGGAG [JL Eng1 1.08 mod 4] (Eterna round: R96, puzzle: Exclusion NG 1)”, the “apparent KD of MS2 coat protein” value reads like this: (input ligand: FMN 200 uM) 191 nM; under setting [1], 17.4 nM; (input ligand: none) 24.7 nM.
Regarding “UUUUUACAUGAGGAUCACCCAUGUCAGGAUAUCAUUAUAUUUUAUUAUUUUAUUUAUAUGAGAAGGGACUAUUA [My solution] (puzzle: Exclusion 1)”, the “apparent KD of MS2 coat protein” value under setting [2] stood at 93.8 nM.
Turning to “UCUUUCAUUGUGAGGAUAUGCCCAAAUAAAAGCGGGCAGAAGGCACAUGAGGAUCACCCAUGUCCUGCGGUUUU [salish99_bmx4_r4_149] (Eterna round: R97, puzzle: Brourd's mod of Exclusion 4)”, the “apparent KD of MS2 coat protein” value (input ligand: FMN 200 uM) was found to be 177 nM and the “apparent KD of MS2 coat protein” value (input ligand: none) was 40.7 nM.
Turning to “AUUAGCGUAGGAUAUUGAUACAUGUACAUGAGGAUCACCCAUGUGAGGUGAGUCUUCGAUUAAGAAGGGCGCAGAA [EX5 #39] (Eterna round: R97, puzzle: Exclusion 5)”, the “apparent KD of MS2 coat protein” value is 82.6 nM (input ligand: FMN 200 uM) and 1210 nM (input ligand: none).
Turning to “UGUUGUCGCGUAGGAUAUGCAUGAGGAUCACCCAUGCAAUUAGAGUUAACAUGAGGAUCACCCAUGUAGAAGGACGGGACAACU [pwkr exNG2 2xF5 1xFMN.6] (Eterna round: R96, puzzle: Exclusion NG 2)”, the “apparent KD of MS2 coat protein” value is 89.2 nM (input ligand: FMN 200 uM), 34.6 nM under setting [1] and 54.1 nM (input ligand: none).
In the case of “GUGGAGUAAGGAUAUACAUGAGGAUCACCCAUGUGAGGGUAUGAGAAGGGAAUGAGAGGUAGAAGGUACGAGGG [JR_Exclu3_Sub070] (puzzle: Exclusion 3)”, under setting [2], the “apparent KD of MS2 coat protein” value was 111 nM.
In the case of “UUUACAAGCUAAAGAUCCCACAUGAGGAUCACCCAUGUUCCUGGCCGUGAGGCUAGGUAAACUUUUGCUCGUCUUAU [JL TOV1 3.67] (Eterna round: R97, puzzle: Sensor, turn-off variant 1)”, the “apparent KD of MS2 coat protein” value stood at 252 nM (input ligand: FMN 200 uM) and 322 nM (input ligand: none).
For “AGUCAAACGGUAGGAUAUCCAUAUCGAGUGACCCUUUCAUAACAUGAGGAUCACCCAUGUCGGUGGGAGAAGGGCCGUAAGGCA [Mat - Exclusion NG 2 - Mod of JL - D70] (Eterna round: R96, puzzle: Exclusion NG 2)”, the “apparent KD of MS2 coat protein” value by setting is: (input ligand: FMN 200 uM) 99.6 nM; under setting [1], 43.1 nM; (input ligand: none) 52.4 nM.
Turning to “CUUUUGUGAGGAUAUCAGGUGUGCUAGCGUACUGGUACAUCUGAGAAGGCACAUGAGGAUCACCCAUGUUUCUA [Mat - Exclusion 4 - Mod of JL - D38] (puzzle: Exclusion 4)”, the “apparent KD of MS2 coat protein” value under setting [2] is 64 nM.
In the case of “AAGAGCGUAGGAUAUACAUGAGGAUCACCCAUGUGUGGAGGACCUGGCCACAUAAGGAGUAGAAGGGCGCAUCU [Eternabot (L2) Solution 92] (Eterna round: R97, puzzle: Exclusion 3)”, the “apparent KD of MS2 coat protein” value (input ligand: FMN 200 uM) is 110 nM and the “apparent KD of MS2 coat protein” value (input ligand: none) was found to be 87 nM.

The values are drawn from the supplement of paper PMC9170038.
